In patent publication US20250270343A1 (Alector, published 2025):

B1: anti-GPNMB antibody GPN-01 (antibody, human IgG1, V domains shown)
VH: QVQLQQSGAELAKPGASVKLSCKASGYNFTNYCIHWVKQRPGQGLEWIGYINPSTGYTEYNQKFKDKATLTADKSSTTAYMQLSSLTSEDSAVYYCARGRYDEFTYWGQGTLVTVSA
VL: DIVLTQSPASLAVSLGQRATISCRASKSVSTSTYSYMHWYQQKPGQPPKLLIYLASNLESGVPARFSGSGSGTDFTLNIHPVEEEDAATYYCQHSRELPPTFGGGTKLEIK
notes: chimeric
B2: anti-GPNMB antibody GPN-24 (antibody, human IgG1, V domains shown)
VH: QVQLQQPGAELVKPGASVKMSCKASGYTFTSYWITWVKQRPGQGLEWIGDIHPGSGRSNYNEKFKNKATLNVDTSSSTVYMQLSSLTSEDSAVYYCARDYLFAYWGQGTLVTVSA
VL: DIQMTQSPSSLSASLGERVSLTCRASQEISGYLSWLQQKPDGTIKRLIYSTSTLDSGVPKRFSGSRSGSDYSLTISSLESEDFADYYCLQYTSSPPTFGGGTKLEIK
notes: chimeric
B3: anti-GPNMB antibody GPN-22 (antibody, human IgG1, V domains shown)
VH: QVQLQQPGAERVKPGASVKMSCKASGYTFTSYWITWVKQRPGQGLEWIGDIFPGSGSTNYHEKFKSKATLTVDTSSSTAYMQLSSLTSEDSAVYYCSRGYFGSSFSDYWGQGTSVTVSS
VL: DIQMTQSPSSLSASLGERVSLTCRTSQEISGYLSWLQQKPDGTIKRLIYSTSTLDSGVPKRFSGSRSGSDYSLTISSLESEDFADYYCLQYASSPPTFGSGTKLEIK
notes: chimeric
B4: anti-GPNMB antibody GPN-26 (antibody, human IgG1, V domains shown)
VH: EVQLQQSGPELVKPGASVKISCKASGYSFTGYYMNWVRQSPEKSLEWIGEINPSTGITTYNQKFKAKATLTVDKSSNTAFMQLKSLTSEDSAVYYCARPASWFDYWGQGTLVTVSA
VL: DIQMTQSPSSLSASLGERVSLTCRASQEISGHLSWLQQKPDGTIKRLIYAASTLDSGVPKRFSGSRSGSDYSLTISSLESEDFADYYCLQYASYPYTFGGGTKLEIK
notes: chimeric
B5: anti-GPNMB antibody GPN-30 (antibody, human IgG1, V domains shown)
VH: EVQLQQSGPELVNPGASVRISCKASGYSFTGYYMNWVKQSPEKSLEWIGEINPNTGFTTYNQNFKAKATLTVDKSSSTAYIQLKSLTSEDSAVYYCTRPSPSFDYWGQGTTLTVSS
VL: DIQMTQSPSSLSASLGERGSLTCRASQEISGHLSWLQQKPDGTIKRLIYAASTLDSGVPKRFSGSRSGSDYSLTISSLESEDFADYYCLQYASYPYTFGGGTKLEIK
notes: chimeric
B6: anti-GPNMB antibody GPN-25 (antibody, human IgG1, V domains shown)
VH: EVQLQQSGPELVKPGASVKISCKASGYSFTGYYMNWVKQSPEKSLEWIGEINPGSGITTYNQKFKAKATLTVDKSSSTAYLQLKSLTSEDSAVYYCARPASWFAYWGQGTLVTVSA
VL: DIQMTQSPSSLSASLGERVSFICRASQEISGHLSWLQQKPDGTIKRLIYAASTLDSGVPKRFSGSRSGSDYSLTISSLESEDFADYYCLQYASYPYTFGGGTKLEIK
notes: chimeric
B7: anti-GPNMB antibody GPN-31 (antibody, human IgG1, V domains shown)
VH: EVQLQQSGPELVKPGASVKISCKASGYSFTGYYMNWVKQSPEKNLEWIGEINPNTGGTTYNQKFKAKATLTVDKSSTTAYMQLKSLTSEDSAVYYCTRPASWFDYWGQGTLVTVSA
VL: DIQMTQSPSSLSASLGERVSLTCRASQEISGHLSWLQQKPDGTIKRLIYAASTLDSGVPKRFSGRRSGSDYSLTISSLESEDFADYYCLQYASYPYTFGGGTKLAIK
notes: chimeric
B8: anti-GPNMB antibody GPN-11 (antibody, human IgG1, V domains shown)
VH: QVQLQQPGAELVKPGASVKLSCKASGYTFTSYWMHWVKQRPGQGLEWIGEINSSNGRTNYNEKFKTKATLTVDRSSSTAYMQLSSLTSEDSAVYYCARLGYYSGSPYPYYAMDCWGQGTSVTVSS
VL: DIQMTQSPASLSVSVGETVTITCRASENIYSNLAWYQQKQGKSPQLLVYAATNLADGVPSRFSGSGSGTQYSLKINSLQSEDFGSYYCQHFWNTPPTFGGGTKLEIK
notes: chimeric

Assays:
[1] = molecular target: T1, soluble human GPNMB (recombinant extracellular domain) (human, UniProt Q14956 23-498); assay: SPR Carterra, Ab immobilized
T1 construct: also called huGPNMB; recombinant human GPNMB extracellular domain; not shown: C-terminal polyhistidine or Avi-His tag
T1 sequence: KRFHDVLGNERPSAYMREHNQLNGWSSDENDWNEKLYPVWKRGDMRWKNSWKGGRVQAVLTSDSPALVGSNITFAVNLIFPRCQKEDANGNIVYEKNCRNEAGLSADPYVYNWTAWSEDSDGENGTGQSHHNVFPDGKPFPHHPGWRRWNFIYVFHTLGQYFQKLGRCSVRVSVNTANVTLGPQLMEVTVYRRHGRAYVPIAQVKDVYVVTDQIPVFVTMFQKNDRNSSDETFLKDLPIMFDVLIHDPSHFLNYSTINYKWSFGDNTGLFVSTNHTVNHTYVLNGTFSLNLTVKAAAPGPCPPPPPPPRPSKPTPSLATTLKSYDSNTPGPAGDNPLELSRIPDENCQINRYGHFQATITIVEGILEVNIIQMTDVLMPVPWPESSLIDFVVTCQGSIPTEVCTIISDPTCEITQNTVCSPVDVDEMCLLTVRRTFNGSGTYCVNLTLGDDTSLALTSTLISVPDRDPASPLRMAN
Experimental: Binding kinetics of human anti-GPNMB IgG1 antibodies of the present disclosure to human, cynomolgus, and mouse GPNMB were evaluated using a Carterra LSA instrument (Carterra, Salt Lake City, UT). […] A HC200M sensor chip (Carterra) was activated using the single channel flow cell with a 7-minute injection of a 1:1:1 mixture of 100 mM MES pH 5.5, 100 mM sulfo-NHS, 400 mM EDC (all reconstituted in MES pH 5.5; 100 μl of each mixed in vial immediately before running assay). After switching to the multi-channel array flow cell, the antibodies were injected over the activated chip in a 96-spot array for 15 minutes. The remaining unconjugated active groups on the chip were then blocked by injecting 1M Ethanolamine pH 8.5 (Carterra) for 7 minutes using the single channel flow cell.
After priming with running buffer (HBS-EP+, Teknova) with 0.5 mg/ml BSA (Sigma), the immobilized anti-GPNMB antibodies were tested for their ability to bind to several forms of recombinant GPNMB extracellular domain, including human, cynomolgus, and mouse orthologs as described above. Estimates of affinity were generated by injecting each analyte over the entire antibody array using the single channel flow cell. GPNMB analytes were diluted to 2.5, 7.4, 22, 67, 200, and 600 nM in running buffer, and injected in serial from lowest to highest concentration without regeneration. Two buffer blanks were run between each series (one species per series). Data were processed and analyzed using Kinetics high-throughput kinetics analysis software (Carterra).

[2] = molecular target: T2, mouse GPNMB endogenously expressed on B16F10 cells (mouse, UniProt Q99P91 23-574); assay: FACS on B16F10 mouse melanoma cells (endogenous mouse GPNMB); single antibody concentration (not given); APC anti-human IgG secondary; MFI as fold over background
T2 construct: whole, on cells; also called moGPNMB
T2 sequence (looked up): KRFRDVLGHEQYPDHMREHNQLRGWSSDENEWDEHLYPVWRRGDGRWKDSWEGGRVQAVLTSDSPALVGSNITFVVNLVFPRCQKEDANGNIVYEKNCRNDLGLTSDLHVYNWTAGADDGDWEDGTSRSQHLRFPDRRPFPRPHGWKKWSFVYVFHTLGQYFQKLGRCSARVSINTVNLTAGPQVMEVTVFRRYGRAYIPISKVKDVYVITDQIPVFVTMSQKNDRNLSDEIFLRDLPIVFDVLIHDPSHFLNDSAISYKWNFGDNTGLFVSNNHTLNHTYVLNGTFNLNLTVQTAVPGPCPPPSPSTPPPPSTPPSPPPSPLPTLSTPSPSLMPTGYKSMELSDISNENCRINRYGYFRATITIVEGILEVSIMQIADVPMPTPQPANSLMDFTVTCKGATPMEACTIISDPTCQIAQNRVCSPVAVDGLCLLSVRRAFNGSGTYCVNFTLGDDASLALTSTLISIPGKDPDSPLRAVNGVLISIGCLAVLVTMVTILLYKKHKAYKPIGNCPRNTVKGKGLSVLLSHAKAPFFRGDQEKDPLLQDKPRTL
Experimental: (§1) Recombinant anti-GPNMB antibodies of the present disclosure were examined for their ability to bind human and/or mouse GPNMB expressed on Freestyle293-huGPNMB+ or B16F10 cells, respectively. B16F10 cells are a murine melanoma cell line from a C57BL/6J mouse that endogenously express high levels of mouse GPNMB. The antibodies were also tested for their ability to bind to a human macrophage cell line (U937 cells) engineered to express human GPNMB. Cells were harvested, plated at 100,000 cells/well in a 96-well round bottom plate, and incubated in 100 μl FACS buffer (PBS containing 2% FBS, 2 mM EDTA) containing anti-GPNMB monoclonal antibodies of the present disclosure for 30 minutes on ice. Cells were then washed and incubated in 100 ul FACS buffer containing 1 μg/ml APC-conjugated anti-human IgG secondary antibody for 30 minutes in ice. Cells were washed twice in cold FACS buffer and acquired on a BD FACS Canto. Data analysis and calculation of MFI values was performed with FlowJo (TreeStar) software version 10.0.7. […]

[3] = molecular target: T3, full-length untagged human GPNMB expressed on cells (human, UniProt Q14956 23-572); assay: cell-based or functional assay
T3 sequence: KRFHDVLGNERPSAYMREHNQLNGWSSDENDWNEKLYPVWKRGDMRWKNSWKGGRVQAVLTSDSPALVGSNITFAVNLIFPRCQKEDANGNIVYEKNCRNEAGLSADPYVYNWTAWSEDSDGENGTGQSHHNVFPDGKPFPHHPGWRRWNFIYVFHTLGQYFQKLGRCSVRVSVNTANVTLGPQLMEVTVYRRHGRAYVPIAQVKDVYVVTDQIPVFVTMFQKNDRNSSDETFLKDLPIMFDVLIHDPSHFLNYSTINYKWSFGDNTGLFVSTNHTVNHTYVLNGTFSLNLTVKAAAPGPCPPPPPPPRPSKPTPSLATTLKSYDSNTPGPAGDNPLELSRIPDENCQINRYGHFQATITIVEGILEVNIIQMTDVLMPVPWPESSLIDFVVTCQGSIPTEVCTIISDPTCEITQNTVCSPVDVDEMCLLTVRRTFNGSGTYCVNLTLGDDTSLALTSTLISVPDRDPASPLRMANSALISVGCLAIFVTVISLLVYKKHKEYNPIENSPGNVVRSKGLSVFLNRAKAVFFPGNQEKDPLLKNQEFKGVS

[4] = molecular target: T2, mouse GPNMB endogenously expressed on …; assay: FACS, B16F10 cells
Experimental: as §1

| Kd [1] | koff [1] | kon [1] | binding result [2] | CD40 (FoB) [3] | CD80 (FoB) [3] | GCase (FoB) [3] | PDL1 (FoB) [3] | MFI fold over background [4] | Binder |
| --- | --- | --- | --- | --- | --- | --- | --- | --- | --- |
| 42.5 nM | 0.0038 s⁻¹ | 91000 M⁻¹ s⁻¹ | no binding | 1.74 FoB | 1.36 FoB | 1.05 FoB | 1.7 FoB | 1 fold | B1 |
| 8.8 nM | 0.00057 s⁻¹ | 69000 M⁻¹ s⁻¹ | no binding | 1.56 FoB | 1.2 FoB | 1.22 FoB | 1.48 FoB | 1 fold | B2 |
| 120 nM | 0.0034 s⁻¹ | 28000 M⁻¹ s⁻¹ | no binding | 1.7 FoB | 1.16 FoB | 1.21 FoB | 1.76 FoB | 1 fold | B3 |
| 11.1 nM | 0.00027 s⁻¹ | 27000 M⁻¹ s⁻¹ | no binding | 1.91 FoB | 1.4 FoB |  | 1.88 FoB | 1 fold | B4 |
| 5 nM | 0.00012 s⁻¹ | 26000 M⁻¹ s⁻¹ | no binding | 1.75 FoB | 1.34 FoB | 1.27 FoB | 1.64 FoB | 1 fold | B5 |
| 11.4 nM | 0.00028 s⁻¹ | 26000 M⁻¹ s⁻¹ | no binding | 1.68 FoB | 1.41 FoB | 1.24 FoB | 1.73 FoB | 1 fold | B6 |
| 11.7 nM | 0.00028 s⁻¹ | 26000 M⁻¹ s⁻¹ | no binding | 1.9 FoB | 1.44 FoB | 1.22 FoB | 1.82 FoB | 1 fold | B7 |
| 14.4 nM | 0.00095 s⁻¹ | 69000 M⁻¹ s⁻¹ | no binding | 1.7 FoB | 1.25 FoB | 1.24 FoB | 1.64 FoB | 1 fold | B8 |
